Assay: yeast display, Sf9 membrane polyspecificity reagent, FACS + sequencing; frameworks hold sequencing errors
Procedure, shortened: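 Genes from sorted yeast were amplified by colony PCR, read by MiSeq 2 × 250 sequencing and filtered on CDR length. These cells carried a synthetic nanobody library in Saccharomyces cerevisiae BJ5465 and were sorted by FACS into low and high (top ~1%) gates on anti-HA and streptavidin fluorescence. Polyreactivity is labelled according to the gate of origin.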

Row | Sequence | polyreactivity (PSR sort gate)
1 | QVHLVESGGGLVQAGGSLRLSCAASGSTIDRYAMGWYRQAPGKERELVASISKRGGSTYYADSVKGRFTISRDNAKNTVYLQMNSLKPEDTAVYYCAAKWASQYDYWGQGTQVTVSS | high polyreactivity
2 | QVQLVESGGGLVQAGGSLRLSCAASGSTLRGNARGCYRQAPGKEREFVAAISSSGGRTYYADSVKGRFTISRDNAKNTVYLQMTSLNPEDTAVYYCAAAGYQYYFSSVPRAYYYWGQGTLVTVSS | high polyreactivity
3 | QVQLVESGGGLVQAGGSLSLSCAASGGTFYQYAMGWYRQAPGKERELVAAISTSGARTYYADSVKGRFTISRDNAKNTVYLQMNSLKTEDTAVYYCAADHIRGGLDYWGQGTQVTVSS | high polyreactivity
4 | QVQLVESGGGLVQAGGSLRLSCAASGRTFGGNAMGWYRQAPGKERELVAAISGRGGSTYYADSVKGRFTISRDNAKNTVYLQMNSLKPEDTAVYYCAARSYLTPEYYYWGQGTQVTVSS | high polyreactivity
5 | QVQLVESGGGLVQAGGSLRLSCAASGYTFTIYAMGWYRQAPGKQRELVAAITGRGGRTNYADSVKGRFTISRDNAKNTVYLQMNSLKPEDTAVYYCNAVTKVVYHGPYGYDYWGQGTQVTVSS | high polyreactivity
6 | QVELVESGGGLGQAGGSLRLSCAASGLIFVLNDMGWYRLAPGKVRELVAAISYSGSSTYADSVKGRFTISRDNAKNTVYLQMNSLKPEDTAVYYCARGSKVRTRGVGYWGQGTQVTVSS | low polyreactivity
7 | QVQLVESGGGLVQAGGSLRLSCAASGLTFRYNAMGWYRQAHGKERELVARISRNGGRTYYADSVKGRFTISRDNAKNTVYLQMNSLKPEDSAVYYCNVVYFVTTSPGYDYWGQGTKVTVSS | high polyreactivity
8 | QVQLVESGGGLVQAGGSLRLSCAASGRTFYRYAMGWYRQAPGKERELVARITSGSSTNYADSVKGRFTISRDNAKNTVYLQMNSLKPEDTAVYYCAKDPRPYLDYDYWGQGTQVTVSS | low polyreactivity
9 | QVQLVESGGGLVQAGGSLRLSCAASGRIFGWYAMGWYRQAPGKERELVAAISSAGRTYYADSVKGRFTISRDNAKNTDYLQMNSLKPEDTAVYYCAAEIARSFYRYTYYYWGQGTQVTVSS | high polyreactivity
10 | QVQLVESGGGLVQAGGSLRLSCAASGRIFGKNDMGWYRQAPGKETEFVATIDWSGGSTYYADSVKGRFTISRDNAKNTVYLQMNSLKPEDTAVYYCAASGWNRYLFDYWGQGTQVTVSS | low polyreactivity
11 | QVQLVESGAGLVQAGGSLRLSCAASGRILSHYAMGWYRQAPGKERELVATINSGGSTYYADSVKGRFTISRDNAKNTVYLQMNSLKPEDTAVYYCAVDYAVSYAGWVLRYDYWGQATQVTVSS | low polyreactivity
12 | QVQLVESGGGLVQAGGSLRLSCAASGSIFLNYAMGWYRQAPGKERELVAAISYRVGRTYYADSVKGRFTISRDNAKNTVYLQMNSLKPEDTAVYYCAADSRSPGHDYWGQGTQVTVSS | high polyreactivity
13 | QVQLVESGGGLVQAGGSLRLSCAASGFTFRYYAMGWYRQAPGKERELVAGISWSGSRTYYADSVKGRFTISRDNAKNTVYLQMNSLKPEDTAVYYCAKVNSYGPVPDRYDYWGQGTQVTVSS | high polyreactivity
14 | QVQLVESGGGLVQAGGSLRLSCAASGRIFAPYDMGWYRQAPGKERELVASITSGGSTNYTDSVKGRFTISRVNAKNTVYLQMNSLIPEDTAVYYCNTAKISEPIDPRQRVWGRTYDYWGQGTQVTVSS | low polyreactivity
15 | QVQLVESGGGLVQAGGSLRLSCAPSGSIFYVYARGWYRQAPGKERQLVATIPRVGRTYYADSVKGRFTISRDNAKNTVYLQRNSLKPEDTAVYYCATRYGGRSYKYDYWGQGTQVTVSS | high polyreactivity
16 | QVQLVESGVGLVQAGGSLRISCAASGGTFLWYAMGRYRQAPGKERELVADITYSGGSTYYADSVKGRFTISRDNAKNTVYLQMNSLKPEDTAVYYCATRGVSPSRPGYYWGQGTQVTVSS | high polyreactivity
17 | QVQLVESGGGLVQAGGSLRLSCAASAFTFKYNVMGWYRQAPGTERELLAAISKRGGNTYYADSVKGRFTISRDNAKNTVYLQMNSLKPEDTAVYYCAADPTSPETSGQGYDYWGQGTQVTVSS | high polyreactivity
18 | QVQLVESGGGLVQAGGSLRLSCAASGSIFIINAMVWYRQAPGKERELVAAINNGVNTYYADSVKGRFTISRDNAKNTVYLQMNSLKPEDTAGYYCAADYGDPRVNEYDYWGQGTQVTVSS | low polyreactivity
19 | QVQLVESGGGLVQAGGSLRLSCAASGRIFYINAMGWYRQAPGKERELVASITGSGGRTYYADSVKGRFTISRDNAKNTVYLQMNSLKPEDTAVYYCNADLYVGYLYYLYDYWGQGTQVTVSS | low polyreactivity
20 | QVQLVESGGGLVQAGGSLRLSCAASGSTFPYNAMGWYRQAPGKERELVAANTFSGGSTYYADSVKGRFTISRDNAKNTVYLQMNSLKPEDTAVYYCNARYPWWGQRYDYWGQGTQVTVSS | low polyreactivity
21 | QVQLVESGGGLVQAGGSLRLSCAASGFIFDTYAMGWYRQAPGKERELVATINDRGDSTSYADSVKGRFTISRDNAKNTVYLQMNSLKPEDTAVYYCARTWGLRYRWSYGRSRYNYWGQGTQVTVSS | low polyreactivity
22 | QVQLVESVGGLVQAGGSLRLSCAASGRIFYKNVMGWYRQAPRKERELVAAISTSTGRTYYADSVNGRFTISRDNAKNTVYLQMNSLKPEDTAVYYCNAVRGLTNGVLYRYDYWGQGTQVTVSS | high polyreactivity

Row | Sequence | polyreactivity (PSR sort gate)
23 | QVQLVESGGGLVQAGGSLRLSFAASGIIFGWYAVGWYRQAHGKDRELVAAINIGGSTNYADSVKGRFTISRYNAKNTVYLQMNSLKPEDTADYYCNARTPGYRYGRDYWGQGTQVTVSS | high polyreactivity
24 | QVQIVESGGGLVQAGGSLRLSCAASGSTFGDNAMGWSRQAPGKERELVAAITRSGGSTYYADSVKGRFTISRDTAKNTVYLHMHSLKPEDTAVYYCNADWYFQYPYDYGGQGTQVTVSS | low polyreactivity
25 | QVQLVESGGGLVQAGGSLRLSCAASGSTFVYNAMGWYRQAPGKERELVAAITSRGGSTDYADSVKGRFTISRDNAKNTVYLQMNSLKPEYTSVYYCAADYSHTGSRYYQEGDYWGQGTQVTVSS | low polyreactivity
26 | QVQLVESWGGLVQAGGSLRLSCAASGSTFVAYAMGGYRQAPGKEREFVAGISVRGGSTYYADSVKGRFTISRDNAKNTVYLQMNSLKPEDTAVYYCAARRVDTRVHVRYRYYYWGQGTQVTVSS | high polyreactivity
27 | QVQLVESGGGLVQAGGSLRLSCAASGSTFYAYTMGWYRQAPGKERELVARISGRGGSTYYADSVKGRFTISRDIAKNTVYLQMNSLKPEDTAVYYCAARVYGTYRGIQYGYWGQGTQVTVSS | high polyreactivity
28 | QVQLVESGGGLVQAGCSLRISCAASGFIFKRNAMGWYRQAPGKERELVAAITWRGGSTYYADSVKGRFTISRDTAKNTVYLQMNSLKPEDTAVYYCAADSYYPRGYRTGWSESAYVSWGQGTLVTVSS | high polyreactivity
29 | QVQLVESGGGLVQAGGSLRLSCAASGSIFQGNVMGWSRQAPGKERELVAAISSGGRTYYADSVKGRFTISRDNAKNTVYLQMNSLKPEDTAVYYCAASWLTSYAYIMYYWGQGTQVTVSS | high polyreactivity
30 | QVQLVESGGGLVQAGGSLRLSCAASGSIFGGNAMGWYRQAPGKERELVATIDFSGTSTYYADSVKGRFTISRDHAKKTVYLQMHSLKPEDTSVSSCNARSYPDYIYWSQRYDYDFWGQGTQVTVSS | low polyreactivity
31 | QVQLVESGGGLVQAGGSLRLSCAASGRIIDDNAMGWYRQAPGKERELVASITVSTGSTYYADSVKGRFTISRDNAKNTVYLQMNSLKPEDTAVYYCDAPYITPYGTYVFSSDYWGQGTQVTVSS | low polyreactivity
32 | QVQLVESGGGLVQAGGSLRLSCAAYGSTFASYSMGWYRQAPGKERELVADISKSGTRTYYADSVKGRFTISRDNAKNTVYLQMNSLKPEDTAVYYCATGQYLRTSRFYYWGHGTQVTVSS | high polyreactivity
33 | QVQLVESGGGLVQAGGSLRLSCAASGIIFRNYAMGWYRQAPGEERELVATIRYRGGRTYADSVKGRFTISRDNAKNTVYLQMNSLKPEDTAVYYCNTYARYAYLTGRMDYWGQGTQVTVSS | high polyreactivity
34 | QVQLVESGGGLVQAGGSLRLSCAASGRTFRGYAMGWYRQAPGKERELVAAITSSGGRTYYADSVKGRFTISRDNAKNTVYLQMNSLKPEDTAVYYCAKDYYSPRGYDYWGQGTQVTVSS | high polyreactivity
35 | QVHLVESGGGLVQAGGSLRLTCAASGSTFGTYAMGWYRPAPGKERELVATIAIGGITYYADSVKGRFTISRDNAKYTVYLQMNSLKPEDTAVDYCAKDVTAPTSRSDPSGDDYWGQGTQVTVSS | low polyreactivity
36 | QVQLVESGGGLVQAGGSLRLSCAASGLIFSGYAMGRYRQAPGKERELVAAITWSGGSTYYADSVKGRFTISRDNAKNTVYLQMNSLKPEDTAVYYCNAKFFQISRYGYWGQGTQVTVSS | high polyreactivity
37 | QVQLVESGGGLVQAGGSLRLSCAASGRTFYYYTMGWSRQAPGKERELVAAITSVGSTSYADSVKGRFTISRANAKNTVYLQMNSPKPEATAVYYCAADYQYVWFYYWGQGTQVTVSS | high polyreactivity
38 | QVQLVESGGGLVQAGGSLRLSCAASGRIFRYNAMGWYRQAPGKGRELVAAITWDGGSTYYADSVKGRFTISRDNAKYTVYLQMNSLKPEYTAVYYCKAVTRSYYSDYYWGQGTQVTVSS | high polyreactivity
39 | QVQLVESGGGLVQAGGSLRLSCAASGITFKYYAMGWYRQAPGKERELVAAIRGGRTYYADSVKGRFTISRDNAKNTVYLQMNSLKPEDTAVYYCNARYYQSGIKYNYWGQGTQVTVSS | high polyreactivity
40 | QVQLGESGGGLVQAGGSLRLSCAASGGIFIGNAMGWYRQAPGKERELVAAISFSGGSTYYADSVKGRFTISRDNAKNTVYLQMNSLKPEDTAVYYCARRIGHGSRPYWLETWRYPYDYWGQGTQVTVSS | low polyreactivity
41 | QVQLVESGGGLVQAGGSLRLSCAASGRIFKANDMGWYRQAPGKERELVAITSSDSTNYADSVKGRFTISRDNAKNTVYLQMNSLKPEDTAVYYCAALSYYYSDRMDYWGQGTQVTVSS | low polyreactivity
42 | QVQLQESGGGLMQAGGSQRLSCAASGSISYYSDRGWYRQAPGKEREFVAGIGYGTTTNYADSVKGRFTTSRDNAKNTVYLQMICMKPEDTAVYYCAAYQGNGYEFYYWGQGTQVTVRS | low polyreactivity
43 | QVQLVESGGGLVQAGGSLRLSCAASGSTFRRYAMGWYRQAPGKERELVAAITSTDVNTYYADSVKGRFTISRDNAKNTVYLQMNSLKPEDTAVYYCAAVYLGYYGVSDMEYWGQGTQVTVSS | high polyreactivity

Source: the nanobody polyreactivity screen of Harvey et al. (2022)
